In the DeepSol protein solubility set:

Experiment: soluble on expression in E. coli; label from the status in PepcDB or PDB records

Q: With “MAHHHHHHMQDVDEMKYLLPNLKQPITSIQVHSWTGTKESYILESKDYVLGEGMPEKCDAIATDCFLSGFTDIGKCFQCKLLMQEKNINDSCFKYVSSNQKELIKKQLKITAQDDEESSEYHLSESIKNLLKNIYKKNNDDNKKKELLHFENVNSALKSELLNYCNLLKEVNMNGVLKDHQLGNVQDVFNNLTKLLEEHKEENDNVLYHKMKNEALCLKNVNDWMKNKTGLLLPQLSYDLTYKNNNFTEFTQNKSYTSQNIVDKLYCNHEYCNRLKDHNNCISKINVEDQKNCALSWAFASKYHLETIKCMKGYEPLNASVLYVTNCLKNKNKDVCTEGSNPLVFLETIEEKGFLPTESNYPYDQSKVGDICPQLQNDWDNVFENTKVLDYNNGPFSVGTKGYIAYESEAFQKDMHSFVKLVKDEIMNKGSVIAYVKAENVLGYELNGKKVQNLCGDKTPDHVVNIVGYGNYINNKGEKKSYWIVRNSWGKYWGDDGYFKVDMYGPSTCEDNFIHTVVVFNVQVPINEKFDKKEHDIYNYYLKTSPEFYHNLYYKTFNSNKEEKSMNKNSYVYGQDTTPVENEAPRSGVQKPTELSSTESQTVSPPNESQTESLLSGGSQVTNPTLTQSTSSSSGQQETGPLSTQGLSPATGDPKGKEQEASPAEGLSGVLNPTKEVTSEEKIQIIHLLKHIKNSKIRRGLVKYNHEFEVGDNSCSRSTSKNAEMHDECVNICEKYWPECRGTAVPGYCLSTHDDKNECDFCYV” as the sequence, how does the “soluble on expression in E. coli” value read?
A: not soluble

Q: For “MTQTPDREKALELAVAQIEKSYGKGSVMRLGDEARQPISVIPTGSIALDVALGIGGLPRGRVIEIYGPESSGKTTVALHAVANAQAAGGVAAFIDAEHALDPDYAKKLGVDTDSLLVSQPDTGEQALEIADMLIRSGALDIVVIDSVAALVPRAELEGEMGDSHVGLQARLMSQALRKMTGALNNSGTTAIFINQLRDKIGVMFGSPETTTGGKALKFYASVRMDVRRVETLKDGTNAVGNRTRVKVVKNKCLAPFKQAEFDILYGKGISREGSLIDMGVDQGLIRKSGAWFTYEGEQLGQGKENARNFLVENADVADEIEKKIKEKLGIGAVVTDDPSNDGVLPAPVDF”, which “soluble on expression in E. coli” value is on record?
A: soluble

Q: With “MGSDKIHHHHHHMRNMNIEEIRNSFLSGRPAVLIDEERENEADLVFPAEIATPKVVNFMLSAKGLLCLALDMEEGIKRGFFKLPNNGGETNFLIPVDYKDVFTGITAEERALTARKVAEGLGIENFRYPGHLPLLGGLGLNKRKGHTEASLELVEMAGFKRYALIIEILDDKGYSHNLDYAFHFAKEHDLPLIRIREIWKEFVRRKQLIHVYSKAKLPTKYGDFEIYSFKNDLDFKDHVALVKKPFKGTPLVRVHSKCLTGDTLGSLKCDCGSQLENALRTISQEGGVLIYLDQEGRGIGLREKIRAYEFQDRGLDTVEANKALGFAPDERTYEVAFQILRALGIEKIKLLTNNPSKVKALRELGIEIEDVIPLPGEINRYNFFYLKTKVEKLGHKIPGVEV” as the sequence, how does the “soluble on expression in E. coli” value read?
A: not soluble

Q: Which “soluble on expression in E. coli” value does the source give for “MLHRIANGIIEEAAENGCTIIAFEELSGTRDRLPEASWGHKWAFERLYEYVKYKSELHGIDVAVVDPENTSRRCSHCGFTHPDNRDSEAFVCLKCGYENHADYNAAKNIGLRYLRRNQTGDGGGAPVGVRLNRGTLNANGEYETPAGDSGQSGSPRESPTLNEARSSDRAKLEHHHHHH” here?
A: not soluble

Q: With “MQVLTTSRKPGRKTRRFAKVLARFFNWKYVNRGKLSLEDLAGIAERFWIISEVKGNPAILNLYERGEKTLEVSFTLSNVNKIKMDDSPAVFKGKAPIDPLVFGAIPQTKAGLKLTRKVEFRKKVVVKGDEWLFFYDDEMLFKLRILKISRSSR” as the sequence, how does the “soluble on expression in E. coli” value read?
A: not soluble

Q: For “MSLNIVSMAREASSHKNSGKKKAIVKFIIRTLLHYSYIKKMNDNFAHDERKMLFKKQPNFLTKCITPYLRNGLSRQEIIDILVKHYDWFEYKFSTDARHQIYDDVLTLYKLEIDEQDYLINLSFDRNSRKEGELTLTLTDSKYNKYYVLAFTVVDNDIYIGCMQGGANDNGFSKLFTKSIYGLRPKSFMVETLRLLAVNLNINHIYAVKNSAHIYTAKRYGKKSKMIGLDYDRLWKEHNGESHNDYFYVLPIKSERKAMEDIKRPKRKMYRERYAWLDNYDKELKNTLDYICNEGHHHHHH”, which “soluble on expression in E. coli” value is on record?
A: not soluble

Q: With “MGSDKIHHHHHHMIDIAEETGYQYEILISTRTSDEENYYYDEIKVVSRNTRKRSEGLARAVKSATGNYAFIFEPSVRYSLTYADLIYGYINLGTSEVLVSNILGFQTDVIKNVGNWRPLTCGEDIDLMARAFDSYGVISYPMGGLTGLDIDDLIYGKWRNRIEKALAMRDLVIAANLKHNNIAEMAESMGIDLPTYEWLISGRILSYLSGIRPYEKNVNNYIFIMERIIESYISQDYRRIDTVSASPYISLSNRTRKYLSSVSDLWTEQNTDNKYPRESV” as the sequence, how does the “soluble on expression in E. coli” value read?
A: not soluble

Q: With “GAMGSMATRIAILGAGPSGMAQLRAFQSAQEKGAEIPELVCFEKQADWGGQWNYTWRTGLDENGEPVHSSMYRYLWSNGPKECLEFADYTFDEHFGKPIASYPPREVLWDYIKGRVEKAGVRKYIRFNTAVRHVEFNEDSQTFTVTVQDHTTDTIYSAAFDYVVCCTGHFSTPYVPEFEGFEKFGGRILHAHDFRDALEFKDKTVLLVGSSYSAEDIGSQCYKYGAKKLISCYRTAPMGYKWPENWDERPNLVRVDTENAYFADGSSEKVDAIILCTGYIHHFPFLNDDLRLVTNNRLWPLNLYKGVVWEDNPKFFYIGMQDQWYSFNMFDAQAWYARDVIMGRLPLPSKEEMKADSMAWREKELTLVTAEEMYTYQGDYIQNLIDMTDYPSFDIPATNKTFLEWKHHKKENIMTFRDHSYRSLMTGTMAPKHHTPWIDALDDSLEAYLSDKSEIPVAKEA” as the sequence, how does the “soluble on expression in E. coli” value read?
A: soluble

Q: For “APAEPAAPKSGEAETPPKHPGVLKVEAILEKVQGLEQAVDSFEGKKTDKKYLMIEEYLTKELLALDSVDPEGRADVRQARRDGVRKVQTILEKLEQKA”, which “soluble on expression in E. coli” value is on record?
A: soluble

Q: With “MSLKPVIGITGNRLVKGVDVFYGHRVTYTQQRYVDAIQKVGGFPIALPIDDPSTAVQAISLVDGLLLTGGQDITPQLYLEEPSQEIGAYFPPRDSYEIALVRAALDAGKPIFAICRGMQLVNVALGGTLYQDISQVETKALQHLQRVDEQLGSHTIDIEPTSELAKHHPNKKLVNSLHHQFIKKLAPSFKVTARTADGMIEAVEGDNLPSWYLGVQWHPELMFQTDPESEQLFQALVDESKKTMVKEGHHHHHH” as the sequence, how does the “soluble on expression in E. coli” value read?
A: soluble

Q: Which “soluble on expression in E. coli” value does the source give for “MLKSGRLNFLKLNINSRLLYSTNPQLTKKVIGIDLGTTNSAVAYIRDSNDKKSATIIENDEGQRTTPSIVAFDVKSSPQNKDQMKTLVGMAAKRQNAINSENTFFATKRLIGRAFNDKEVQRDMAVMPYKIVKCESNGQAYLSTSNGLIQSPSQIASILLKYLKQTSEEYLGEKVNLAVITVPAYFNDSQRQATKDAGKLAGLNVLRVINEPTAAALSFGIDDKRNNGLIAVYDLGGGTFDISILDIEDGVFEVRATNGDTHLGGEDFDNVIVNYIIDTFIHENPEITREEITKNRETMQRLKDVSERAKIDLSHVKKTFIELPFVYKSKHLRVPMTEEELDNMTLSLINRTIPPVKQALKDADIEPEDIDEVILVGGMTRMPKIRSVVKDLFGKSPNSSVNPDETVALGAAIQGGILSGEIKNVLLLDVTPLTLGIETFGGAFSPLIPRNTTVPVKKTEIFSTGVDGQAGVDIKVFQGERGLVRNNKLIGDLKLTGITPLPKGIPQIYVTFDIDADGIINVSAAEKSSGKQQSITVIPNSGLSEEEIAKLIEEANANRAQDNLIRQRLELISKADIMISDTENLFKRYEKLISSEKEYSNIVEDIKALRQAIKNFKANENDMSIDVNGIKKATDALQGRALKLFQSATKNQQNQGK” here?
A: not soluble

Q: For “MIRPVDFQGFVVKGVESVQNVSQTLNQQTLVQQALSQHLLHQIQREQSSVKESNTAERAEVRTSTERRQRGFPQTRTHSSLKKKKTSIKEENKGLFMDVRTLEHHHHHH”, which “soluble on expression in E. coli” value is on record?
A: not soluble

Q: Which “soluble on expression in E. coli” value does the source give for “STLQPRCEDVETAEGVALTVTGVAQVKIMTEKELLAVACEQFLGKNVQDIKNVVLQTLEGHLRSILGTLTVEQIYQDRDQFAKLVREVAAPDVGRMGIEILSFTIKDVYDKVDYLSSLGKTQTAVVQRDADIGVAEAERDAGIREAECKKEMLDVKFMADTKIADSKRAFELQKSAFSEEVNIKTAEAQLAYELQGAREQQKIRQEEIEIEVVQRKKQIAVEAQEILRTDKELIATVRRPAEAEAHRIQQIAEGEKVKQVLLAQAEAEKIRKIGEAEAAVIEAMGKAEAERMKLKAEAYQKYGDAAKMALVLEALPQIAAKIAAPLTKVDEIVVLSGDNSKVTSEVNRLLAELPASVHALTGVDLSKIPLIKKATGVQV” here?
A: not soluble

Q: Which “soluble on expression in E. coli” value does the source give for “MSLSVLNGYQLIISDVDGVIVREGDPIWENIQALRNIQNNGVKIIFVTNNSGFSRILLSRQLSYLGLKVTPDMIITSGLAAAIYMKEKLNVKSVFAVGEEGLIEELKNHGFLVFSSAESERILPDAVVMGLDRLSTYDKLSLAMRCISKGSKFIVTNMDRLWPAKDGLKLGAGALASSIIYALRRDPDFIAGKPNTWIVEIAMRISNVKKLDKILVIGDQIETDIQMGYNIGADTALVLTGISNVDDVDRSNVKPKYVVNTLLDLLEGHHHHHH” here?
A: soluble

Q: For “MYIVIAGGGEMGGELARALEKTHDVVVIDRNPQARERFASLDVKVVVGGATDPDTLREAGVDRADLFVASTDSDEINLLASLLAKGLGAKEAFCFVGKGGYVEVLTDPRTAEILGTRIDRVLWPQRAMAREIVEVILVPWAVDTEVLAGGRLRFVEYRVKEGGEYVHRLLSGEKWPEGVLLAGVVREGTFLSFAHPEFPELILEPGDKLLFVATQKAFSELAAYFTEGPGVRRVMVIGGGNVGFMVAQGLLKRRVEVVIVERNAERCQWLSEELPGALVIQGDGTDIELLEAEGMAEADAVVAVTDHDEKNLLASLLAKQMGVRKVITRVSRSETRRLFEQVGIDLALTPRQAAVREVLDWIGPENVEHIATLDESIEVLEVLVSEGAAPKALRDLVRPDAVPVALERDHRIFLYEEGLGLLPGDRLYLVAAREVADEVLAPFFPE”, which “soluble on expression in E. coli” value is on record?
A: soluble

Q: Which “soluble on expression in E. coli” value does the source give for “MKKLLLPLVLAGVLLATLLVSQSSSSPSLRVAYVDVEKATESYYKWQDLNEKYKRDYSFYQNKLKEMEDELKKMQEEGRSQEEIQAKQKEILSKKAEYENLLKTEYQQKIQEVMKEVVSKIQEYASVMGYDLVIAKQMVLYGKPSYDITDQVIAYINQK” here?
A: not soluble

Q: With “MGKPTGFLEYTREIPQELSPGDRLRNWDEFHVTMPDKQVETQGARCMDCGTPFCHTGSLISGMASGCPINNLIPEFNDLVYRGLWREALDRLHKTNNFPEFTGRVCPAPCEGSCVLGINNPPVTIKNIEYSIIEKGWQEGWVTPEPPAKRTGKKVAVVGSGPAGLAAAAQLNKAGHWVTVYEREDRPGGLLMYGIPNMKLDKEEVVLRRLNVLEAEGVTFVCNTEIGKDLPPETLLKDYDAVVLCTGATKPRDLAIAGRELEGIHFAMEFLTANTKAILDKTPGPNFISAKDKDVVIIGGGDTGTDCVGTSLRHGCRSLVQLEIMPKPPEERAANNPWPEWPKVYKMDYGQEEAAAVYGHDPRSYLTTATKIEGDDQGRVKAVHTVDVRWEKDGQGRFIPQQVAGTEQVRPAQLVLLAMGFVGPESQLLDAMKLDKDARGNIKAEYGQYETSIPGVFAAGDCRRGQSLVVWAFNEGRGAAKACDLYLMGETDLPLEHHHHHH” as the sequence, how does the “soluble on expression in E. coli” value read?
A: not soluble

Q: With “MRALVVGAGIGGLVAARALRRAGLEVLVLEAHTYPGGLAGTFTHRGYRFDAGATLLSGFAPGGPMALVAEALGVCLPVEPFPEGFPLMEVHLPRGPLLRPVGREAEREAQRDFFGPRVLPFWRWQEERAKALLRLAPRLPWPPEREELLRLLALLPELFPLLPDLFLKAAHRAPQDPHFLRFLDAQLLIASQAEAKRTYALYAALALDLPHMGPALVPGGVGRVAEALAEGLPVRYKARAERLLLGEGRALAVEVAYGGRRRGEREVVEADLFVLDVPLAPLLGLPLKVPEDAWGAFVVHGVLPFRAPPPYFRQNAREKPFAFLSLRPEGEKTAFALSLHTPLALWEGLSPEEYGRLKARWGEMALSLGEALLPGLREAELLLFGTPRTYARFAGRAWVGGFPQTHPFRFPRVRPFPNVFRVGEGVFPGQSVPAAALSGLRAARLALEALGLAGSGGEARPSFPPFPLEHHHHHH” as the sequence, how does the “soluble on expression in E. coli” value read?
A: not soluble
